Assay results published in patent publication US20250019425A1 (ADRX, published 2025).
Like-named read-outs stand apart in the source and are kept apart here.

Key:
[1] = biological target: T1, TTR S112I (dimer TTR, dTTR), untagged (human, UniProt P02766 21-147); test: sandwich ELISA (Example 11): antibody coated on the plate, untagged TTR titrated, HRP-conjugated pan-TTR polyclonal antibody for detection
[2] = biological target: T2, wild-type TTR (wtTTR), untagged (human, UniProt P02766 21-147); test: as above
[3] = biological target: T3, biotinylated TTR F87M L110M monomer (Avi_mTTR in vivo biotinylation construct) (human, biotin on the Avi tag (in vivo biotinylation by BirA)); test: biolayer interferometry (Octet RED), antibody on anti-mouse biosensor, biotinylated TTR monomer
T3 construct: also called Biotinyl-Monomer; biotinyl-mTTR

[4] = biological target: TTR F87M L110M (monomeric TTR, mTTR), untagged (human, UniProt P02766 21-147); test: sandwich ELISA, antibody coated, untagged mTTR, HRP pan-TTR polyclonal detection
[5] = biological target: T3, biotinylated TTR F87M L110M monomer …; test: indirect ELISA, biotinylated mTTR on Neutravidin plate, anti-mouse-HRP
[6] = biological target: T3, biotinylated TTR F87M L110M monomer …; test: indirect ELISA, biotinyl-mTTR bound to avidin plates
[7] = biological target: biotinylated TTR S112I (dimer TTR) (human, UniProt P02766 21-147); test: indirect ELISA (Examples 4 and 8): biotinylated TTR on Neutravidin plate, antibody titrated, HRP-conjugated anti-species antibody
[8] = biological target: T3, biotinylated TTR F87M L110M monomer …; test: indirect ELISA, biotinyl-mTTR bound to avidin plates; remark: listed apart in the source
[9] = biological target: T1, TTR S112I (dimer TTR, dTTR), untagged; test: sandwich ELISA (Example 11): antibody coated on the plate, untagged TTR titrated, HRP-conjugated pan-TTR polyclonal antibody for detection; remark: listed apart in the source
[10] = biological target: T2, wild-type TTR (wtTTR), untagged; test: as above; remark: listed apart in the source
[11] = biological target: T3, biotinylated TTR F87M L110M monomer …; test: indirect ELISA, biotinylated mTTR on Neutravidin plate, anti-mouse-HRP; indirect ELISA; biotinylated mTTR captured on Neutravidin plate, anti-mouse-HRP detection
[12] = biological target: T1, TTR S112I (dimer TTR, dTTR), untagged; test: sandwich ELISA (Example 11): antibody coated on the plate, untagged TTR titrated, HRP-conjugated pan-TTR polyclonal antibody for detection; remark: listed apart in the source
[13] = biological target: T2, wild-type TTR (wtTTR), untagged; test: as above; remark: listed apart in the source

Binder | Kd [3] [nM] | EC50 [4] [nM] | EC50 [5] [nM] | EC50 [6] [nM] | further results
Humanized Ab1 construct (antibody, V domains shown, also called humanized antibody Ab1; humanized construct for Ab1) VH: QVQLVQSGAEVKKPGASVKVSCKASGYTFTSYWMHWVRQAPGQGLEWIGNIDPSDSETHYAQKFQGRATLTVDKSTSTVYMELSSLRSEDTAVYYCARGRNYWYFDVWGTGTMVTVSS VL: DIQMTQSPSSLSASVGDRVTITCRASESVDNYGISFMNWFQQKPGKPPKLLIYAASNQGSGVPSRFSGSGSGTDFTLTISSLQPEDFATYYCQQSKEVPWTFGGGTKLEIK |  |  |  | 0.55 | binding result [7]: no binding (tested: about 60 nM antibody); fold weaker than the IgG2 form of Ab1 [8]: ~10 fold
murine anti-human monomer TTR antibody Ab5 (antibody, V domains shown, Murine monoclonal antibody; entries are called Mouse Ab5 HC / LC but hold only the variable domains; also called mAb 5; Antibody 5) VH: EVQLQQSGAELVKPGASVKLSCTASGFNIKDYYMHWVKQRTEQGLEWIGRIDPEDGETKYAPKFQGKATITADTSSNTAYLQLSSLTSEDTAVYYCALLWLRRGRGYWGQGTTLTVSS VL: DIQMTQSPSSLSASLGERVSLTCRASQEISGYLSWLQQKPDGTIKRLIYAASTLDSGVPKRFSGSRSGSDYSLTISSLESEDFADYYCLQYASYPPTFGAGTKLELK | 1.31 | ~14.2 | 0.2 |  | binding result [9]: no binding (tested: about 20 µM TTR); binding result [10]: no binding (tested: about 20 µM TTR)
murine anti-human monomer TTR antibody Ab2 (antibody, V domains shown, Murine monoclonal antibody; also called mAb 2; Antibody 2) VH: EVKLEQSGGGLVQPGGSMKLSCVASGFTFSNYWMNWVRQSPEKGLEWVAQIRLKSDNYATHYAESVKGRFTISRDDSKSSVYLQMNNLRAEDTGIYYCTGVFTYWGQGTLVTVSA VL: NIVLTQSPASLAVSLGQRATISCRTSESVDSYGNSFMHWYQQKPGQPPKLLIYLASNLESGVPARFSGSGSRTDFTLTIDPVEADDAATYYCQQNNEDPMYTFGGGTKLEIK | 6.21 | 98.9 | 1.45 | 0.16 | 

Further binders by falling EC50 [4], results first:

Kd [3] [nM] | EC50 [4] [nM] | EC50 [5] [nM] | EC50 [6] [nM] | Binder | further results
12.1 | 128 | 14.1 |  | murine anti-human monomer TTR antibody Ab3 (antibody, V domains shown, Murine monoclonal antibody; entries are called Mouse Ab3 HC / LC but hold only the variable domains; also called mAb 3; Antibody 3) VH: EVQLQQSGPVLVKPGASVKMSCKASGYTFTDYYMNWVKQSHGKSLEWIGVINPYNGGTSYNQKFKGKATLTVDKSSSTAYMELNSLTSEDSAVYYCARDLTGTGGAMDYWGQGTSVTVSS VL: QIVLTQSPAILSASPGEKVTMTCRASSSVSYMHWYQQKPGSSPKPWIYATSNLASGVPARFSGSGSGTSYSLTISRVEAEDAATYYCQQWSSNPLTFGAGTKLELK | binding result [1]: no binding (tested: about 20 µM TTR); binding result [2]: no binding (tested: about 20 µM TTR)
 | ~43.2 |  |  | murine anti-human monomer TTR antibody Ab7 (antibody, V domains shown, Murine monoclonal antibody; entries are called Mouse Ab7 HC / LC but hold only the variable domains; also called Antibody 7) VH: EVQLQQSGAELVKPGASVKLSCTASGFNIKDYYMHWVKQRTEQGLEWIGRIDPEDGETKYAPKFQGKATITADTSSNTAYLQLSSLTSEDTAVYYCARGKTPFAYWGQGTLVTVSA VL: DIQMTQSPSSLSASLGERVSLTCRASQEISGYLSWLQQKPDGTIKRLIYAASTLDFGVPKRFSGSRFGSDYSLTISSLESEDFADYYCLQYDSYPFTFGSGTKLEIK | EC50 [11]: 4.22 nM; binding result [12]: no binding (tested: about 20 µM TTR); binding result [13]: no binding (tested: about 20 µM TTR)
11.4 | ~12.7 | 0.45 |  | murine anti-human monomer TTR antibody Ab6 (antibody, V domains shown, Murine monoclonal antibody; entries are called Mouse Ab6 HC / LC but hold only the variable domains; also called Antibody 6) VH: QVQLQQSGAELMKPGASVKLSCKATGYTFTGYWIEWVKQRPGHGLEWIGEILPGSGSTNYNEKFKGKATFTADTSSNTAYMQLSSLTTEDSAIYYCARLRGSSYPWYFDYWGQGTTLTVSS VL: DIQMTQSPASLSVSVGETVTITCRASENIYSNLAWYQQKQGKSPQLLVYAATNLADGVPSRFSGSGSGTQYSLKINSLQSEDFGSYYCQHFWGTPYTFGGGTKLEIK | 
